Experimental data: US20220174981A1, “PROLINE TOLERANT TRIPEPTIDYL PEPTIDASES AND USES THEREOF” (DuPont Nutrition Biosciences APS, priority 2014, published 2022)
Peptide text beside a SMILES is read from it.

T1: T. reesei proline tolerant tripeptidyl peptidase TRI083 (SEQ ID No. 1, SEQ ID No. 2 or SEQ ID No. 29) (Trichoderma reesei, UniProt G0RXE9)
T1 sequence (G0RXE9 198-612): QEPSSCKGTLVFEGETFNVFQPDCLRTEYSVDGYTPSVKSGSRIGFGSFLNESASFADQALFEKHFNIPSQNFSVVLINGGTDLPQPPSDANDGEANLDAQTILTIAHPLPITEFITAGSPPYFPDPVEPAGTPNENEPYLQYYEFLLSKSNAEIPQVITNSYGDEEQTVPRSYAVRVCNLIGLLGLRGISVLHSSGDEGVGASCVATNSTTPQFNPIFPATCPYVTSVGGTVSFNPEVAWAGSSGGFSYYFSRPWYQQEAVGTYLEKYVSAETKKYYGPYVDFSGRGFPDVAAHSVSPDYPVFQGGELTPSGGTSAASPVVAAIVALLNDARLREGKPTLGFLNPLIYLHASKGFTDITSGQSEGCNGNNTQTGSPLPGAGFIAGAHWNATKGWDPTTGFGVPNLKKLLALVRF


Assays:
Type in all cases: biochemical
[1] = biological target: T1, T. reesei proline tolerant tripeptidyl peptidase TRI083 (SEQ ID No. 1, SEQ ID No. 2 or SEQ ID No. 29); experiment: Product inhibition of proline tolerant tripeptidyl peptidase TRI083 with H-Ala-Ala-Ala-pNA as substrate; settings: competitive inhibitor fit; substrate Ala-Ala-Ala-pNA (0-2000 nM); McIlvaine buffer pH 4.0, 50° C.; tripeptide at 3.6 mM, dipeptide at 18 mM
Experimental: For proline tolerant tripeptidyl peptidase the chromogenic peptide H-Ala-Ala-Ala-pNA was used. The assay was conducted as follows, 27.5 μL of appropriately diluted enzyme was added to 200 μl McIlvaine buffer (20 mM, pH 4.0). After incubation at 50° C. for 5 min, 12.5 μL of the chromogenic peptide solution (5 mg/mL dissolved in dimethyl sulfoxide (DMSO); Sigma-Aldrich, Denmark) were added to the reaction mixture. The reaction was terminated by adding 50 μL of 0.5 M trichloroacetic acid (TCA; Sigma-Aldrich, Denmark). After centrifugation (15,000×g, 5 min), 240 μL of the solution were transferred to a microtiter plate (MTP; Kisker-biotech, Germany) and the absorption was measured in an MTP reader (Molecular Devices, Denmark) at 405 nm. One katal of proteolytic activity was defined as the amount of enzyme required to release 1 mol of p-nitroaniline per second. […]
The inhibition experiments were set up as described in Example 14. […] The degree of pre-hydrolysis of H-Ala-Ala-Ala-OH was determined by gas chromatography (Husek, 1991; FEBS-Letters 280, 354-356). About 0.18 mg/mL alanine was measured, which corresponds to about 54% hydrolyses of the initially applied H-Ala-Ala-Ala-OH.
Subsequently, TRI083 was analyzed for product inhibition without inhibitor, with 1 mg/mL H-Ala-Ala-Ala-OH as well with the PepN pre-hydrolyzed H-Ala-Ala-Ala-OH (1 mg/mL).

[2] = tested on: whey protein (WPI, Lacprodan-9224); experiment: Hydrolysis of 20% whey protein (WPI) with Alphalase FP2 and TRI083, OPA degree of hydrolysis; settings: FP2 0.0%
Experimental: For whey protein hydrolysis, Lacprodan-9224 (Arla Food Ingredients, Denmark) was employed. A 20% (w/w) WPI suspension was prepared in H2Od and adjusted to pH 4.0 with acetic acid (Sigma-Aldrich, Denmark). To prevent microbial growth, 0.0285% (w/w) NaN3 was added. A volume of 200 μl of the WPI suspension was transferred into each of the 96 wells of a microtiter plate (MTP; VWR, Denmark). Subsequently, 5 μl of each consecutively diluted peptidase, Alphalase® FP2 and proline tolerant tripeptidyl peptidase (3PP=TRI083; 0-8750 nkat H-Ala-Ala-Ala-pNA/mL activity in stock solution added), were added to each well, resulting in dosages as shown in Table 1. The MTP was sealed and placed in an EMS incubator/shaker (Thermo Scientific, Denmark) at 40° C. After 24 h of incubation and shaking at 400 rpm, the hydrolyses were stopped by addition of 20 μl of 2 M trichloroacetic acid (TCA; Sigma-Aldrich, Denmark). As a reference, a plain 20% WPI (w/w) suspension was used which was treated in the same manner as the WPI hydrolyses. Unhydrolysed, precipitated WPI was removed by filtration (0.22 μm). On the filtered WPI hydrolysate o-phthaldehyde (OPA) derivatization was conducted according to Nielsen et al. (2001) with minor modifications. A sample volume of 25 μl was transferred to a well and 175 μl of OPA-reagent, dissolved in phosphate buffer pH 11, was added subsequently. The measured absorptions at 340 nm in an MTP reader (Molecular Devices, Denmark) were transformed into the relative degree of hydrolysis (DH) in per cent.
A 20% (w/w) WPI suspension hydrolysed in 6 M HCl (Sigma-Aldrich, Denmark) at 100° C. for 24 h served as reference (100% DH).

sodium caseinate = experiment: 5% sodium caseinate hydrolysis with endopeptidase, TRI083 and PepN, serine equivalents; settings: 17,500 nkat/mL TRI083
H-Ala-Ala-Ala-pNA = experiment: Exopeptidase Broad-Specificity Assay (EBSA) with H-Ala-Ala-Ala-pNA; pH and temperature profile
Experimental: 10 μL of the chromogenic peptide solution (10 mM H-Ala-Ala-Ala-pNA dissolved in dimethyl sulfoxide (DMSO); MW=387.82; Bachem, Switzerland) were added to 130 μl Na-acetate (20 mM, adjusted to pH 4.0 with acetic acid) in a microtiter plate and heated for 5 minutes at 40° C. 10 μL of appropriately diluted enzyme was added and the absorption was measured in a MTP reader (Versa max, Molecular Devices, Denmark) at 405 nm. One katal of proteolytic activity was defined as the amount of enzyme required to release 1 mole of p-nitroaniline per second.
The chromogenic peptide H-Ala-Ala-Ala-pNA (MW=387.82; Bachem, Switzerland) was used to determine the activity of proline tolerant tripeptidyl peptidase in the samples produced as described above. The assay was conducted as follows, 10 μL of the chromogenic peptide solution (10 mM dissolved in dimethyl sulfoxide; DMSO) were added to 130 μl Na-acetate (20 mM, adjusted to pH 4.0 with acetic acid) in a microtiter plate and heated for 5 minutes at 40° C. 10 μL of appropriately diluted enzyme was added and the absorption was measured in an MTP reader (Versa max, Molecular Devices, Denmark) at 405 nm. One katal of proteolytic activity was defined as the amount of enzyme required to release 1 mole of p-nitroaniline per second.
The proline tolerant tripeptidyl peptidase assay described with H-Ala-Ala-Ala-pNA substrate above with modification of using the buffers 20 mM Na-glycine (pH 2.0, 2.5, 3.0, 3.5 and 4.0) or 20 mM Na-acetate buffer (pH 4.0, 4.5 and 5.5) was used to determine the pH profile of proline tolerant tripeptidyl peptidase TRI083 (FIG. 2) and TRI045 (FIG. 24)..
The proline tolerant tripeptidyl peptidase assay described above was used at temperatures 25, 50, 55, 60, 65, 70, 75, 80 and 85° C.
For proline tolerant tripeptidyl peptidase the chromogenic peptide H-Ala-Ala-Ala-pNA was used. The assay was conducted as follows, 27.5 μL of appropriately diluted enzyme was added to 200 μl McIlvaine buffer (20 mM, pH 4.0). After incubation at 50° C. for 5 min, 12.5 μL of the chromogenic peptide solution (5 mg/mL dissolved in dimethyl sulfoxide (DMSO); Sigma-Aldrich, Denmark) were added to the reaction mixture. The reaction was terminated by adding 50 μL of 0.5 M trichloroacetic acid (TCA; Sigma-Aldrich, Denmark). After centrifugation (15,000×g, 5 min), 240 μL of the solution were transferred to a microtiter plate (MTP; Kisker-biotech, Germany) and the absorption was measured in an MTP reader (Molecular Devices, Denmark) at 405 nm. One katal of proteolytic activity was defined as the amount of enzyme required to release 1 mol of p-nitroaniline per second.

Molecule	Ki [1] [mM]	Degree of hydrolysis of 20% (w/w) WPI ([2]; TRI083 2,188 nkat/mL stock solution) [%]	Degree of hydrolysis of 20% (w/w) WPI ([2]; TRI083 4,375 nkat/mL stock solution) [%]	Degree of hydrolysis of 20% (w/w) WPI ([2]; TRI083 8,375 nkat/mL stock solution) [%]	increase of SE (sodium caseinate) [mM]	activity at 70° C. and higher temperatures (H-Ala-Ala-Ala-pNA)	Optimum pH (H-Ala-Ala-Ala-pNA; H-Ala-Ala-Ala-pNA, 20 mM Na-glycine pH 2.0-4.0 or Na-acetate pH 4.0-5.5)	optimum temperature (H-Ala-Ala-Ala-pNA; tested at 25-85° C.) [°C]
C[C@H](N)C(=O)N[C@@H](C)C(=O)N[C@@H](C)C(=O)O [H-Ala-Ala-Ala-OH]	0.34	–	–	–	–	–	–	–
C[C@H](N)C(=O)N[C@@H](C)C(=O)O [H-Ala-Ala-OH] (H-Ala-Ala-OH)	40	–	–	–	–	–	–	–
TRI083: proline tolerant tripeptidyl peptidase (SEQ ID No. 1, SEQ ID No. 2 or SEQ ID No. 29), expressed in Trichoderma reesei (protein) QEPSSCKGTLVFEGETFNVFQPDCLRTEYSVDGYTPSVKSGSRIGFGSFLNESASFADQALFEKHFNIPSQNFSVVLINGGTDLPQPPSDANDGEANLDAQTILTIAHPLPITEFITAGSPPYFPDPVEPAGTPNENEPYLQYYEFLLSKSNAEIPQVITNSYGDEEQTVPRSYAVRVCNLIGLLGLRGISVLHSSGDEGVGASCVATNSTTPQFNPIFPATCPYVTSVGGTVSFNPEVAWAGSSGGFSYYFSRPWYQQEAVGTYLEKYVSAETKKYYGPYVDFSGRGFPDVAAHSVSPDYPVFQGGELTPSGGTSAASPVVAAIVALLNDARLREGKPTLGFLNPLIYLHASKGFTDITSGQSEGCNGNNTQTGSPLPGAGFIAGAHWNATKGWDPTTGFGVPNLKKLLALVRF	–	0.5	−0.9	1.4	18	no activity	4.0	50
